Measurements taken from the supplement of paper PMC9112550, “Optimization of the antimicrobial peptide Bac7 by deep mutational scanning” (BMC Biology, 2022).

What follows are sequences tested on Escherichia coli TOP10 (assay: shrunken log2 fold change of peptide-encoding DNA abundance (4.5 h post-induction vs induction); higher = less antimicrobial activity (less host growth inhibition)). Details: time post-induction: 4.5 h; library: site-saturation at positions 5, 18, 19, 20.
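Note: peptides expressed intracellularly from a pBAD plasmid library in pooled LB shake-flask culture, induced with 0.3% L-arabinose, DNA abundance read by NGS, three biological replicates, DESeq2 with apeglm shrinkage.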

Row | Sequence | shrunken log2 fold change
1 | RRIRCRPPRLPRPRPRPNQPPRP | -0.0425
2 | RRIRCRPPRLPRPRPRPNRCPRP | 0.053
3 | RRIRCRPPRLPRPRPRPNRKPRP | -0.127
4 | RRIRCRPPRLPRPRPRPNRVPRP | -0.206
5 | RRIRCRPPRLPRPRPRPNSAPRP | 0.0338
6 | RRIRCRPPRLPRPRPRPNVHPRP | -0.532
7 | RRIRCRPPRLPRPRPRPPACPRP | 0.479
8 | RRIRCRPPRLPRPRPRPPANPRP | 0.521
9 | RRIRCRPPRLPRPRPRPPCGPRP | 0.142
10 | RRIRCRPPRLPRPRPRPPCHPRP | 0.3
11 | RRIRCRPPRLPRPRPRPPCIPRP | 0.0428
12 | RRIRCRPPRLPRPRPRPPDAPRP | 0.354
13 | RRIRCRPPRLPRPRPRPPDEPRP | 1.07
14 | RRIRCRPPRLPRPRPRPPESPRP | 0.347
15 | RRIRCRPPRLPRPRPRPPFGPRP | 0.213
16 | RRIRCRPPRLPRPRPRPPGPPRP | 0.337
17 | RRIRCRPPRLPRPRPRPPHCPRP | 0.971
18 | RRIRCRPPRLPRPRPRPPIMPRP | -0.0556
19 | RRIRCRPPRLPRPRPRPPIYPRP | -0.253
20 | RRIRCRPPRLPRPRPRPPMCPRP | -0.23
21 | RRIRCRPPRLPRPRPRPPMGPRP | 0.155
22 | RRIRCRPPRLPRPRPRPPMWPRP | 0.557
23 | RRIRCRPPRLPRPRPRPPMYPRP | -0.156
24 | RRIRCRPPRLPRPRPRPPQDPRP | 1.08
25 | RRIRCRPPRLPRPRPRPPRRPRP | 0.909

Row | Sequence | shrunken log2 fold change
26 | RRIRCRPPRLPRPRPRPPTFPRP | -0.331
27 | RRIRCRPPRLPRPRPRPPTGPRP | 0.232
28 | RRIRCRPPRLPRPRPRPPVLPRP | -0.169
29 | RRIRCRPPRLPRPRPRPPWVPRP | 0.204
30 | RRIRCRPPRLPRPRPRPPYSPRP | -0.798
31 | RRIRCRPPRLPRPRPRPQCKPRP | -0.619
32 | RRIRCRPPRLPRPRPRPQEPPRP | 0.359
33 | RRIRCRPPRLPRPRPRPQFWPRP | 0.303
34 | RRIRCRPPRLPRPRPRPQHHPRP | -0.46
35 | RRIRCRPPRLPRPRPRPQHKPRP | -0.543
36 | RRIRCRPPRLPRPRPRPQHLPRP | -0.0397
37 | RRIRCRPPRLPRPRPRPQIIPRP | -0.853
38 | RRIRCRPPRLPRPRPRPQIMPRP | -0.352
39 | RRIRCRPPRLPRPRPRPQINPRP | -0.685
40 | RRIRCRPPRLPRPRPRPQKKPRP | -0.0243
41 | RRIRCRPPRLPRPRPRPQMAPRP | -0.117
42 | RRIRCRPPRLPRPRPRPQMQPRP | -0.347
43 | RRIRCRPPRLPRPRPRPQNEPRP | -0.389
44 | RRIRCRPPRLPRPRPRPQPGPRP | 0.437
45 | RRIRCRPPRLPRPRPRPQPPPRP | 0.806
46 | RRIRCRPPRLPRPRPRPQPYPRP | -0.975
47 | RRIRCRPPRLPRPRPRPQQTPRP | -0.00158
48 | RRIRCRPPRLPRPRPRPQQVPRP | -0.29
49 | RRIRCRPPRLPRPRPRPQTHPRP | 0.0541
50 | RRIRCRPPRLPRPRPRPQTRPRP | 0.471

Row | Sequence | shrunken log2 fold change
51 | RRIRCRPPRLPRPRPRPQVYPRP | -0.313
52 | RRIRCRPPRLPRPRPRPQWCPRP | -0.158
53 | RRIRCRPPRLPRPRPRPQWDPRP | -0.0642
54 | RRIRCRPPRLPRPRPRPQWEPRP | 0.0667
55 | RRIRCRPPRLPRPRPRPQYHPRP | -0.425
56 | RRIRCRPPRLPRPRPRPRAHPRP | 0.361
57 | RRIRCRPPRLPRPRPRPRAIPRP | 0.0982
58 | RRIRCRPPRLPRPRPRPRCFPRP | -0.158
59 | RRIRCRPPRLPRPRPRPRCHPRP | 0.0572
60 | RRIRCRPPRLPRPRPRPRCVPRP | -0.0609
61 | RRIRCRPPRLPRPRPRPRCYPRP | -0.532
62 | RRIRCRPPRLPRPRPRPRDHPRP | 0.197
63 | RRIRCRPPRLPRPRPRPRDSPRP | -0.0484
64 | RRIRCRPPRLPRPRPRPRESPRP | 0.155
65 | RRIRCRPPRLPRPRPRPRGFPRP | 0.249
66 | RRIRCRPPRLPRPRPRPRKCPRP | 0.0179
67 | RRIRCRPPRLPRPRPRPRMHPRP | 0.066
68 | RRIRCRPPRLPRPRPRPRMSPRP | 0.041
69 | RRIRCRPPRLPRPRPRPRNKPRP | -0.102
70 | RRIRCRPPRLPRPRPRPRPHPRP | 0.211
71 | RRIRCRPPRLPRPRPRPRPIPRP | 0.266
72 | RRIRCRPPRLPRPRPRPRQPPRP | 0.249
73 | RRIRCRPPRLPRPRPRPRSDPRP | -0.101
74 | RRIRCRPPRLPRPRPRPRSSPRP | -0.138
75 | RRIRCRPPRLPRPRPRPRTPPRP | 0.571

Row | Sequence | shrunken log2 fold change
76 | RRIRCRPPRLPRPRPRPRTQPRP | 0.323
77 | RRIRCRPPRLPRPRPRPRTSPRP | 0.00938
78 | RRIRCRPPRLPRPRPRPRVAPRP | 0.293
79 | RRIRCRPPRLPRPRPRPRWEPRP | 0.342
80 | RRIRCRPPRLPRPRPRPRYFPRP | -0.529
81 | RRIRCRPPRLPRPRPRPRYQPRP | -0.319
82 | RRIRCRPPRLPRPRPRPRYTPRP | -0.37
83 | RRIRCRPPRLPRPRPRPSAEPRP | 0.153
84 | RRIRCRPPRLPRPRPRPSAQPRP | 0.336
85 | RRIRCRPPRLPRPRPRPSDEPRP | -0.126
86 | RRIRCRPPRLPRPRPRPSDIPRP | -0.814
87 | RRIRCRPPRLPRPRPRPSDNPRP | -0.66
88 | RRIRCRPPRLPRPRPRPSEGPRP | 0.141
89 | RRIRCRPPRLPRPRPRPSEKPRP | -0.188
90 | RRIRCRPPRLPRPRPRPSESPRP | 0.258
91 | RRIRCRPPRLPRPRPRPSFHPRP | -0.841
92 | RRIRCRPPRLPRPRPRPSFRPRP | -0.439
93 | RRIRCRPPRLPRPRPRPSFSPRP | -0.571
94 | RRIRCRPPRLPRPRPRPSGDPRP | -0.195
95 | RRIRCRPPRLPRPRPRPSGHPRP | -0.422
96 | RRIRCRPPRLPRPRPRPSGLPRP | 0.0264
97 | RRIRCRPPRLPRPRPRPSGSPRP | -0.125
98 | RRIRCRPPRLPRPRPRPSHVPRP | -0.387
99 | RRIRCRPPRLPRPRPRPSHWPRP | -0.204
100 | RRIRCRPPRLPRPRPRPSHYPRP | -0.349

Row | Sequence | shrunken log2 fold change
101 | RRIRCRPPRLPRPRPRPSIMPRP | -0.684
102 | RRIRCRPPRLPRPRPRPSLCPRP | -0.49
103 | RRIRCRPPRLPRPRPRPSLGPRP | -0.0171
104 | RRIRCRPPRLPRPRPRPSLIPRP | -0.286
105 | RRIRCRPPRLPRPRPRPSMPPRP | -0.558
106 | RRIRCRPPRLPRPRPRPSMQPRP | -0.328
107 | RRIRCRPPRLPRPRPRPSPNPRP | -0.102
108 | RRIRCRPPRLPRPRPRPSSDPRP | -0.162
109 | RRIRCRPPRLPRPRPRPSSGPRP | -0.011
110 | RRIRCRPPRLPRPRPRPSSVPRP | -0.548
111 | RRIRCRPPRLPRPRPRPSWTPRP | -0.532
112 | RRIRCRPPRLPRPRPRPSYLPRP | -1
113 | RRIRCRPPRLPRPRPRPTANPRP | 0.0466
114 | RRIRCRPPRLPRPRPRPTCQPRP | 0.00203
115 | RRIRCRPPRLPRPRPRPTEVPRP | -0.135
116 | RRIRCRPPRLPRPRPRPTFKPRP | -0.148
117 | RRIRCRPPRLPRPRPRPTFMPRP | -0.513
118 | RRIRCRPPRLPRPRPRPTFQPRP | -0.0555
119 | RRIRCRPPRLPRPRPRPTFVPRP | -0.161
120 | RRIRCRPPRLPRPRPRPTGEPRP | 0.156
121 | RRIRCRPPRLPRPRPRPTGPPRP | 0.669
122 | RRIRCRPPRLPRPRPRPTGYPRP | -0.0363
123 | RRIRCRPPRLPRPRPRPTHHPRP | 0.126
124 | RRIRCRPPRLPRPRPRPTIMPRP | -0.562
125 | RRIRCRPPRLPRPRPRPTKHPRP | 0.00206

Row | Sequence | shrunken log2 fold change
126 | RRIRCRPPRLPRPRPRPTMVPRP | -0.33
127 | RRIRCRPPRLPRPRPRPTNNPRP | -0.619
128 | RRIRCRPPRLPRPRPRPTPIPRP | 0.244
129 | RRIRCRPPRLPRPRPRPTQIPRP | 0.452
130 | RRIRCRPPRLPRPRPRPTQNPRP | 0.803
131 | RRIRCRPPRLPRPRPRPTSAPRP | 0.18
132 | RRIRCRPPRLPRPRPRPTTMPRP | 0.722
133 | RRIRCRPPRLPRPRPRPTTSPRP | -0.0643
134 | RRIRCRPPRLPRPRPRPTVKPRP | -0.286
135 | RRIRCRPPRLPRPRPRPTVLPRP | -0.174
136 | RRIRCRPPRLPRPRPRPTVTPRP | -0.208
137 | RRIRCRPPRLPRPRPRPTVVPRP | -0.127
138 | RRIRCRPPRLPRPRPRPTYCPRP | -0.279
139 | RRIRCRPPRLPRPRPRPTYEPRP | -0.717
140 | RRIRCRPPRLPRPRPRPTYHPRP | -0.815
141 | RRIRCRPPRLPRPRPRPTYRPRP | 0.0231
142 | RRIRCRPPRLPRPRPRPVALPRP | 0.0824
143 | RRIRCRPPRLPRPRPRPVCHPRP | -0.294
144 | RRIRCRPPRLPRPRPRPVCKPRP | -0.238
145 | RRIRCRPPRLPRPRPRPVCQPRP | -0.102
146 | RRIRCRPPRLPRPRPRPVDDPRP | 0.157
147 | RRIRCRPPRLPRPRPRPVEVPRP | -0.0243
148 | RRIRCRPPRLPRPRPRPVFMPRP | -0.359
149 | RRIRCRPPRLPRPRPRPVFSPRP | -0.385
150 | RRIRCRPPRLPRPRPRPVFWPRP | 0.138
